Test results published in publication PMC7641127, “MCL1 binds and negatively regulates the transcriptional function of tumor suppressor p73” (Cell Death & Disease, 2020).
*: point of attachment. FITC = O=C1OC2(c3ccc(O)cc3Oc3cc(O)ccc32)c2ccc(NC(=S)*)cc21; Ahx = NCCCCCC(=O)O

Target: recombinant MCL1 (human) (UniProt Q07820)
Assay: fluorescence polarisation; direct FPA: recombinant MCL1 with FITC-peptide, 30 min, 1× PBS pH 7.4; limit of detection of the probe 5 nM

recombinant MCL1 (human), sequence (Q07820 whole entry): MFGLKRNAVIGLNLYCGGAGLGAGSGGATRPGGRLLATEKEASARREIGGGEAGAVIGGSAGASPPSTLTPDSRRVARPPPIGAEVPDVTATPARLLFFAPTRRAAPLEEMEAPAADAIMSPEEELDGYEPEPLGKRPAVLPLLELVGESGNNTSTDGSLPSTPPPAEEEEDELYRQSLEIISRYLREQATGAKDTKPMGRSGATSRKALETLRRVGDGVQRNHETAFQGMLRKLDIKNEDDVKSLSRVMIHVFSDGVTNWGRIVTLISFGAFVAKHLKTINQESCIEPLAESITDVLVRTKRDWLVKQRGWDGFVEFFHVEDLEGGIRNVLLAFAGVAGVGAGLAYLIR

Kd: < 5 nM
Binder: {FITC-Ahx}-GQVGRQLAIIGDDINRRYD-NH2 [FITC-AHX-BAK peptide]
